{
  "source": "the DeepSol protein solubility set",
  "data": [
    {"assay": "soluble on expression in E. coli; label from the status in PepcDB or PDB records", "values": [
      {"sequence": "MTPLRVFRKTTPLVNTIRLSLLPLAGLSFSAFAAQVNIAPGSLDKALNQYAAHSGFTLSVDASLTRGKQSNGLHGDYDVESGLQQLLDGSGLQVKPLGNNSWTLEPAPAPKEDALTVVGDWLGDARENDVFEHAGARDVIRREDFAKTGATTMREVLNRIPGVSAPENNGTGSHDLAMNFGIRGLNPRLASRSTVLMDGIPVPFAPYGQPQLSLAPVSLGNMDAIDVVRGGGAVRYGPQSVGGVVNFVTRAIPQDFGIEAGVEGQLSPTSSQNNPKETHNLMVGGTADNGFGTALLYSGTRGSDWREHSATRIDDLMLKSKYAPDEVHTFNSLLQYYDGEADMPGGLSRADYDADRWQSTRPYDRFWGRRKLASLGYQFQPDSQHKFNIQGFYTQTLRSGYLEQGKRITLSPRNYWVRGIEPRYSQIFMIGPSAHEVGVGYRYLNESTHEMRYYTATSSGQLPSGSSPYDRDTRSGTEAHAWYLDDKIDIGNWTITPGMRFEHIESYQNNAITGTHEEVSYNAPLPALNVLYHLTDSWNLYANTEGSFGTVQYSQIGKAVQSGNVEPEKARTWELGTRYDDGALTAEMGLFLINFNNQYDSNQTNDTVTARGKTRHTGLETQARYDLGTLTPTLDNVSIYASYAYVNAEIREKGDTYGNLVPFSPKHKGTLGVDYKPGNWTFNLNSDFQSSQFADNANTVKESADGSTGRIPGFMLWGARVAYDFGPQMADLNLAFGVKNIFDQDYFIRSYDDNNKGIYAGQPRTLYMQGSLKF", "soluble on expression in E. coli": "soluble"},
      {"sequence": "MGSHHHHHHSQDPMMSRLKTAVYDYLNDVDITECTEMDLLCQLSNCCDFINETYAKNYDTLYDIMERDILSYNIVNIKNTLTFALRDASPSVKLATLTLLASVIKKLNKIQHTDAAMFSEVIDGIVAEEQQVIGFIQKKCKYNTT", "soluble on expression in E. coli": "soluble"},
      {"sequence": "AIASKKKGLSFDDKRTRMLEIFTESKTFFTLKELEKVAPKQKGIVLPSVKEVLQSLVDDDVVSSDKCGTQTVYWCLPSQAVQKKRCRIASLTEHLQAKYALRQQLFQRRDELRNSHQDTEERTHFIEQINELESKLKLIQEQLDIYKESDPEVLAEIRNVSHIAWEATNRWTDNIFSIRSWVTSKFGLPSSEFDKNFGLSEDFDYI", "soluble on expression in E. coli": "soluble"},
      {"sequence": "MLMPKRTKYRKQMKGRNRGKAHRGNSIAFGDIAIKAIEHGRIDSRQIESARVAMTRHIKRAGKVWIRVFPDKPLTAKPLETRMGKGKGSVEKWVMNIKPGRIVYEMLGIEEGLAREALALAQSKLPFKTKIVTCESENEIYLEHHHHHH", "soluble on expression in E. coli": "soluble"},
      {"sequence": "MKYMIGVDGGGTKTEAIAFDKDGNELVRATSGFGNILIDFEEALVHIMEAINQCQKSLINGHCVCVCLGLAGISGANTNELTLRLKKKYGTKIEIFNDAMIAHAAALKGKDGILTIGGTGAICIGKKGEVYQYSGGWGHILGDEGSGYWIALQALKKMAIQFDQGISLCPLSLNIQRQFQLLTPSHIKSLVYTSSKDKIAAIAPLVIQEARDGNDDAHEIMMQAGKELARITVNVYNKLNFKHSTPIAASGSILRLVPEIFAVFKKCCEESMKEITFVSQAEMAVKGTYYLMRDIYFLEHHHHHH", "soluble on expression in E. coli": "soluble"},
      {"sequence": "MTPPRVLSIAGSDSGGGAGIQADMRTMALLGVHACVAVTAVTVQNTLGVKDIHEVPNDVVAGQIEAVVTDIGVQAAKTGMLASSRIVATVAATWRRLELSVPLVVDPVCASMHGDPLLAPSALDSLRGQLFPLATLLTPNLDEARLLVDIEVVDAESQRAAAKALHALGPQWVLVKGGHLRSSDGSCDLLYDGVSCYQFDAQRLPTGDDHGGGDTLATAIAAALAHGFTVPDAVDFGKRWVTECLRAAYPLGRGHGPVSPLFRLS", "soluble on expression in E. coli": "not soluble"},
      {"sequence": "MFRVLHLADLHLGYRPDLPAPVREEVYRARNRVLQAAVDLALDPRQGISLVLIAGDLFDNHRPEASLVEETIRQLTRLEAAGIQVITVPGNHDEITYNDAVYRREAGRWPGLLVTDPMPAKVATLKVKGDTCHLMAMAYTGGVTRVDGPLKAFPPAEGEGVNLAVFHGSLDWDGGERSLPLDGEALAAAGYDYIALGHIHRGGQRRLGRGLAVYAGMVAGKGFADPGTGSWTIVTLGDGPARVEQVPARVTPWRLVDLDVTAFQEPEELETAVRDALDPLEHHHHHH", "soluble on expression in E. coli": "not soluble"},
      {"sequence": "MGSDKIHHHHHHLRFIIVSGPPSAGKTAVMIHAIRHLLKDGIKVAACKIDCLKTSDDKNYRALGIPVAVGLSEYLCPDHFFVANLEEIYAWGSYYGTEVLILETAGLCHRCAPAIQGCLSICVIDNLSGIDTPQKVGPMLSTADVVLISKGDVVSQAEREVFRQRVEMVNPDAAVLSVNGLNGQGSLKLKKIIMESASVKRIEGQELRCSMPAAICSYCTGETMIGSSYQMGNVKKLDFGKF", "soluble on expression in E. coli": "not soluble"},
      {"sequence": "MIIRPERQGDEEAIARVTEDAFRNVEHRSGTEQLIVARLRDAGALTVSLVAEDSEGIIGHVGFSPVTLSSGETGWFCLAPLSVTPERQGEGVGSRLARDGLAVLERLSAAGCVVVGDPAYYGRFGFRPVAGLSAEGIPDEYFTVLRLHGGTPSGIVGFHPGFDGDNA", "soluble on expression in E. coli": "not soluble"},
      {"sequence": "MKFCKKCVMPDTKPDLHFDEEGVCDACRSQEAKNQNINWQEREKEFFELIKKYKKHPVYDCVIGVSGGKDSTFQVVKMLELGLNPLCVCFEPSVPTKIGRKNLDNLNHLGVDLIHIKRDPKVYQKLAREAFIRTGDNEWQNHLGIFTSVPRIAVNFGVPLIIWGESPQIEYGGPASSKNKNILGREWLEEFGGLLGNRASDMLGVNGITEKDLFLYTYPSDEELQRVGVTGLFLGYYFKWDYKKILEISKKYGFLTLDHPVETTYENFENLDCYSNHVHDYLKYCKYGFGRATDNACLDIRLGYISREEGVRLAQKYDGKPPKKAIKKYLEFSGFSEEEFQKIVDSFTNKKIFKRDENGKFIRDYDGSLVRKDECVLK", "soluble on expression in E. coli": "not soluble"},
      {"sequence": "MNIQKMYTAVDVHVNGEAFRVMKDVPCKYYYSLEQLNEQFSGELAEEMKLLLNEPRGFIGLNGCIVVPSIHNEVDAAVLFFNHEGSIPLHYGGIVAVITMLLESGYLKKRESNQYKIETLSGIFLVHAYVENDEVISVSFESKLCYLIEENLQVGNVSYSLIQADKVYAVVEKGAYSPEIRVENISELKRWGEATLQAIQKQSLIKRLILVDPSQKEKNHIKSITFHEDNFIVRSPGFVSTIVSYVHALFKNDYMADKPFKNESIFNSFITVEKVKKEELGYIFRFESRGFITGMQTFLLDPTDPFPAGFLLKLEHHHHHH", "soluble on expression in E. coli": "not soluble"},
      {"sequence": "MAHHHHHHMMYTGEIENGQMHGRGCLIYPNKEKYEGDWVYGKRHGHGVYTYADGSKYDGEWVEDKVHGKGTCYYASGNRYSGDWTFGRINGRGTLEYADGDRYDGEWKDGRMHGKGLYYYSNGDRYDGEWKDDKRHGKGTVTYAGPDGSVSEKFDGDWVEGRMQGWGKYYYADGGVYEGEWQDGKMHGKGTYIFPNGNKYEGEWCDDVKQGYGVLTYVNGERYEGYWLDDKAHGTGTLTYLQGDRYTGEWYQGKKHGRGTLAYSNKDTYEGEWRNDSATGRGVLEYANGCRYEGDWLDDRRHGEGQLLLPDGSSYEGGWVNGKKEGRARIILKCGAVFVGTWKDNLIVGQGEFYLSENCDLNNPDY", "soluble on expression in E. coli": "soluble"},
      {"sequence": "MVSSLLMSFAPATVRVYATSTKGGSGGPKEEKNPIDFVLGFMTKQDQFYETNPLLKKVDEKEGTTTGGRGTVRGGKNSAPTPVPKKSEGGFGGLGSLFKK", "soluble on expression in E. coli": "not soluble"},
      {"sequence": "MSLGILRQAHWRNPSLERSPALILAHGCFEDVHGKVAHGLVRGTDRFDIVAVIDPDCAGHDAGTLLDGRPRNIPVFASIEAALAQGRRRPAVAIVGMATHGGRFTETLRAALFEAAAAGLSLVNGLHDLAGDDPEIAAETARHGASILDLRRPRAVAELHFWTGQIHGVAAPRIAVLGTDCALGKRTTARLLTQALNADGIRTEMIYTGQTGWMQGGRYGFILDALPNDFVSGELEHAILTCYREVRPDLIILEGQSALRNPSGPCGAELLLSGAAAGVILQHAPGRRHYDGFEGSRFRIPPVEDEIRLIEHYGVPVLGVSLNGRDSGPEGLREAQRRLARTLDVPVVCPLEDGVTDLLPPLRALLEREEVAEGHHHHHH", "soluble on expression in E. coli": "soluble"},
      {"sequence": "MSLASFPHRNLTWNDINFVHTTDTHGWYSGHINQPLYHANWGDFISFTTHMRRIAHSRNQDLLLIDSGDRHDGNGLSDITSPNGLKSTPIFIKQDYDLLTIGNHELYLWENSKQEYETVVNHFQDKYVCSNVDIRLDNGLFVPLGLKYKYFTTPIRGIRVMAFGFLFDFKRFNSGTRVTPMAETIHEPWFQEALKHEVDLIIIVGHTPISHNWGEFYQVHQYLRQFFPDTIIQYFGGHSHIRDFTVFDSLSTGLQSGRYCETVGWTSVNLDKADLNLPVRQRFSRSYIDFNTDSFKYHTNLDKEFDTAKGKLVSKLIRETRKELKLDTLIGYVKTNYYVDYVPIDHPKSIFNLLALKILKTLPKSKHEERITIINTGSIRYDLYKGPYTIDSKFIVSPFENIWVNITVPKSVATKVAAKLNDADYISASRLKPPHQYDLQVQDLSTSPHQAHFEMQEKLPKGYVTHDDFGADGDDTLHRAVVNFPVPNVIQSVEINDEVDSPVNLVFYSFITPNIIWALKELNFSTEQVPTPYSDIYLGTLLNEFVANNEGHHHHHH", "soluble on expression in E. coli": "soluble"},
      {"sequence": "MTVPDRSEIAGKWYVVALASNTEFFLREKDKMKMAMARISFLGEDELKVSYAVPKPNGCRKWETTFKKTSDDGEVYYSEEAKKKVEVLDTDYKSYAVIYATRVKDGRTLHMMRLYSRSPEVSPAATAIFRKLAGERNYTDEMVAMLPRQEECTVDEV", "soluble on expression in E. coli": "soluble"},
      {"sequence": "MGSDKIHHHHHHMMFLFINISLAQTADTAVKSDELQTTTTSVDEVGVAPADPTPTLSKKELRRQRVAKRNLHYNILGGPSYTPDFGLLIGGSALMTFRMNPSDTTQQRSVVPMAIALMFEGGLNLFTKPQLFFKGDRFRIFGVFAYKNTLENFYGIGYSTNKDYPRGEDTSEYRYSGVQVNPWFLFRLGKSNFFAGPQIDFNYDKITKPAAGMIEQPSYIAAGGTDHGYSNLSSGLGFLLTYDTRDVPANAYRGTYLDFRGMMYNKAFGSDNNFYRLEIDYRQYKTLGKRKVLAWTVQTKNVFGNVPLTKYALSGTPFDLRGYYMGQFRDKSSHVMMAEYRQMINTDKSNWVKKMLNHVGYVAWGGCGFMGPTPGKIEGVLPNLGLGLRIEVQPRMNVRLDFGRDMVNKQNLFYFNMTEAF", "soluble on expression in E. coli": "not soluble"},
      {"sequence": "MSLASVWKRLQRVGKHASKFQFVASYQELMVECTKKWQPDKLVVVWTRRSRRKSSKAHSWQPGIKNPYRGVVVWPVPENIEITVTLFKDPHAEEFEDKEWTFVIENESPSGRRKALATSSINMKQYASPMPTQTDVKLKFKPLSKKVVSATLQFSLSCIFLREGKATDEDMQSLASLMSMKQADIGNLDDFEEDNEDDDENRVNQEEKAAKITEGHHHHHH", "soluble on expression in E. coli": "not soluble"},
      {"sequence": "MGSHHHHHHDITSLYKKAGSAAAVLEENLYFQGSFTMLHEIPKSEILKELKRIGAKRVLIQSPEGLRREAEELAGFLEENNIEVFLHGEINYGACDPADREAKLVGCDALIHLGHSYMKLPLEVPTIFVPAFARVSVVEALKENIGEIKKLGRKIIVTTTAQHIHQLKEAKEFLESEGFEVSIGRGDSRISWPGQVLGCNYSVAKVRGEGILFIGSGIFHPLGLAVATRKKVLAIDPYTKAFSWIDPERFIRKRWAQIAKAMDAKKFGVIVSIKKGQLRLAEAKRIVKLLKKHGREARLIVMNDVNYHKLEGFPFEAYVVVACPRVPLDDYGAWRKPVLTPKEVEILLGLREEYEFDEILGGPRESDEPFGISIHSTR", "soluble on expression in E. coli": "soluble"},
      {"sequence": "MDESMRHDIALFRYGLIAPLVNGQVEPKAYLNEVGGRVHSIPHQGDKPIAAKTILDWCARYKKGGFDALKPKRRSDRGRSRRLSPDDEDHILALRKEHPTMPVTLFYEQLTKQGDIPTTLSYFTIYRLLKKHNLVGKEILPMPERKRFAYDQINELWQGDLSHGPTIRVHGKAQKTFLIAYIDDCSRLVPYAQFFPSEKFDGLRIVTKEAVLRCGKPKRIYSDNGKIYRSEVLQYACAEMGITLIHTQPYDPQSKGKIERFFRTVQTRFYPLLELNPPKSLDELNERFWKWLEEEYHRKPHASLDGKTPHEVFQSQVERVVWIEDIDWLDAIFLKREHRKVKADGTITLNKQLYEVPPRFIGQSIELRYDERGVYVYEDGKRVAEAIRVRLEDNAYVKRHRSPFAAVSAKEGEQDV", "soluble on expression in E. coli": "not soluble"}
    ]}
  ]
}
